From patent US20210332110A1 (ROCKEFELLER UNIVERSITY, published 2021)

B1: C144 (antibody, V domains shown)
VH: EVQLVESGGGLIQPGGSLRLSCAASGFTVSNNYMSWVRQAPGKGLEWVSVIYSGGSTYYADSVKGRFTISRDKSKNTLYLQMNRLRAEDTAVYYCAREGEVEGYNDFWSGYSRDRYYFDYWGQGTLVTVSS
VL: QSALTQPASVSGSPGQSITISCTGTSSDVGGYNYVSWYQQHPGKAPKLMIYDVSNRPSGVSNRFSGSKSGNTASLTISGLQAEDEADYYCSSYTSSSTRVFGTGTKVTVL
B2: C121 (antibody, V domains shown)
VH: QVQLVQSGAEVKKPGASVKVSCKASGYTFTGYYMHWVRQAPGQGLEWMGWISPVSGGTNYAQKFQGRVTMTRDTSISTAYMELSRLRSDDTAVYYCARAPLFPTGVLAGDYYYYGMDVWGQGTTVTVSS
VL: QSALTQPASVSGSPGQSITISCTGTSSDVGSYNLVSWYQQHPGKAPKLMIYEGSKRPSGVSNRFSGSKSGNTASLTISGLQAEDEADYYCCSYAGSSTLVFGGGTKLTVL

Biological target: Spike (S) protein of authentic SARS-CoV-2, strain USA-WA1/2020 (SARS-CoV-2, UniProt P0DTC2 14-1273)
Assay: cell-based or functional assay

Binder | IC50, neutralization of authentic SARS-CoV-2
B1 | 2.55 ng/mL
B2 | 1.64 ng/mL
